Biological target: Full-length isoform 165 of human VEGF-A (human) (UniProt P15692)
Assay: SPR; Biacore T200, 25 °C, PBS with 0.05% Tween 20 and 3.4 mM EDTA; VEGF-A amine-coupled to a CM-5 chip; Fab injected in single cycle kinetics with five increasing concentrations; double referenced; fit to a 1:1 Langmuir binding model

Full-length isoform 165 of human VEGF-A (human), sequence (P15692 other isoform, or with tags, fused parts or gaps): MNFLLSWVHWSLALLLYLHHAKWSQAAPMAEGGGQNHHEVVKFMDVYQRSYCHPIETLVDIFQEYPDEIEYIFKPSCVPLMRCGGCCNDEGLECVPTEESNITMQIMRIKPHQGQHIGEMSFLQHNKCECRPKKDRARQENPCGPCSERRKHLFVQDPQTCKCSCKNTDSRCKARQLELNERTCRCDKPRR

B1: bH1 Fab H3 variant 16_0325 (Fab, V domains shown)
VH: EVQLVESGGGLVQPGGSLRLSCAASGFNIKDTYIHWVRQAPGKGLEWVARIYPTNGYTRYADSVKGRFTISADTSKNTAYLQMNSLRAEDTAVYYCARGGAVAGTGVYYFDYWGQGTLVTVSS
VL: DIQMTQSPSSLSASVGDRVTITCRASQDIPRSISGYVAWYQQKPGKAPKLLIYWGSYLYSGVPSRFSGSGSGTDFTLTISSLQPEDFATYYCQQHYTTPPTFGQGTKVEIK
- Kd: 8 nM

B2: bH1 Fab H3 variant 14_0112 (Fab, V domains shown)
VH: EVQLVESGGGLVQPGGSLRLSCAASGFNIKDTYIHWVRQAPGKGLEWVARIYPTNGYTRYADSVKGRFTISADTSKNTAYLQMNSLRAEDTAVYYCAKGGSSSGPYHFEYWGQGTLVTVSS
VL: DIQMTQSPSSLSASVGDRVTITCRASQDIPRSISGYVAWYQQKPGKAPKLLIYWGSYLYSGVPSRFSGSGSGTDFTLTISSLQPEDFATYYCQQHYTTPPTFGQGTKVEIK
- Kd: 8 nM
